The target of this test is both RasaN and SLP-76. The test can be described thus: supernatant depletion assay (pull-down titration); biotinylated SH2 domains on streptavidin-coated DynaBeads, washed once and serially diluted in 1x PBS; ADAP at 8 nM (PBS with 0.1% E. coli extract), 10 min at RT; unbound ADAP in the supernatant read by in-gel fluorescence; Kd estimated from the plot.

B1: phosphorylated SNAP-ADAP fusion protein (ADAP amino acids 570-690) (domain or fragment)
chain: DYDSLKLKKDSLGAPSRPIEDDQEVYDDVAEQDDISSHSQSGSGGIFPPPPDDDIYDGIEEEDADDGFPAPPKQLDMGDEVYDDVDTSDFPVSSAEMSQGTNVGKAKTEEKDLKKLKKQEK
modifications: phosphotyrosine (in vitro phosphorylation by Fyn kinase, approx. 90% of each phosphorylation site; sites in Table S1); BG-647 dye on the SNAP-tag
As usually defined, the Kd is the equilibrium constant for the complex coming apart. As to B1, the Kd was 0.06 to 0.09 µM.

(Values after paper PMC3858276.)
